Data as given in the supplement of paper PMC9170038.

System: MS2 coat protein
Assay: apparent KD of MS2 coat protein; designed switch direction (-1 OFF switch, 1 ON switch): 1; higher = weaker reporter binding
In short: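 Designed RNA switches with common flanks were transcribed on Illumina chips by stalled E. coli RNA polymerase and titrated with SNAP-549-labelled MS2 coat protein, from 0.7 or 1.5 nM doubling to 3 µM, in Tris-HCl pH 7.5 buffer with KCl, MgCl2, BSA, DTT, tRNA and Tween-20. Steps lasted 0.8–1.5 h (lowest) to 10–20 min (highest). Titrations ran without input, with 200 uM small-molecule ligand, or with an oligonucleotide input. Normalised cluster fluorescence was curve-fitted, and apparent KD is the per-design median over clusters.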

[1] = input ligand: microRNA oligo, concentration not stated
[2] = Eterna round: R95, input ligand: FMN 200 uM
[3] = Eterna round: R95, input ligand: microRNA oligo, concentration not stated
[4] = Eterna round: R95, input ligand: none

Row | Sequence | apparent KD of MS2 coat protein (input ligand: FMN 200 uM) | apparent KD of MS2 coat protein [1] | apparent KD of MS2 coat protein (input ligand: none) | apparent KD of MS2 coat protein [2] | apparent KD of MS2 coat protein [3] | apparent KD of MS2 coat protein [4]
1 | AGUCCAGCCUGAGCUGGACAAAAGCAUGUACAUGAGGAUCACCCAUGUCAUGUACAAGCUUUUUGCUCGUCUUAAAA [JL zipper 46] (Eterna round: R96, puzzle: Sensor for hsa-mir-208a) | 685 nM | 13 nM | 677 nM |  |  | 
2 | GGUAUCGACACAGGAUAUGCUAUCCUUUGGGUAGCAGAAGGGUGGACAUGAGGAUCACCCAUGUGGGUGCCAGGGCGUGAGCCC [JL SSNG1 1.84] (Eterna round: R96, puzzle: Same State NG 1) | 234 nM | 21.1 nM | 1040 nM |  |  | 
3 | GAGGGCGAAAGCAACAUGAGGAUCACCCAUGUCCUCGGAGGUCAGGAUAUCCGGCGGUAGCCGAAGGAGAAGGGACGGUGAACC [AK SSNG3-V2-32.1] (Eterna round: R96, puzzle: Same State NG 3) | 180 nM | 97.5 nM | 175 nM |  |  | 
4 | GCUCGACUGAUGGCCUACAUGAGGAUCACCCAUGUGAUUGGGCAGGAUAUCUAGAUGCAGGAUGUAGAGAAGGGCCAGUCGAGC [SameState NG3 #45] (Eterna round: R96, puzzle: Same State NG 3) | 1130 nM | 477 nM | 503 nM |  |  | 
5 | GGCCAGAGUCAAGGAUAUGCUACCGUUUCGGUAGCAGAAGGUGAUCACAUGAGGAUCACCCAUGUAUACGCUGGAAAGCGGGCC [JL SSNG1 3.64] (Eterna round: R96, puzzle: Same State NG 1) | 452 nM | 480 nM | 1430 nM |  |  | 
6 | UGUCCAGCCUGAGCUGGACAAAAGCAUGUACAUGAGGAUCACCCAUGUUCAUGUACAAGCUUUUUGCUCGUCUUAAA [salish99_208a_r3_030] (puzzle: Sensor for hsa-mir-208a) |  |  |  | 325 nM | 14.7 nM | 370 nM
7 | AGCUAGUACGAAGGAUAUACAAACAUGAGGAUCACCCAUGUAUACAUGGUUAGAUGUGACUACAUGUAGAAGGUCGUACUAGCA [SameState NG2 #15] (Eterna round: R96, puzzle: Same State NG 2) | 225 nM | 331 nM | 443 nM |  |  | 
8 | AAUUAUUUACAUGAGGAUCACCCAUGUAUUAUUACAAGCUUUAUCCUCGUUUUAUUUAUUAUUAUUAUUAUUAUUAA [benbell_design1] (puzzle: Sensor for hsa-mir-208a version 2) |  |  |  | 369 nM | 33 nM | 326 nM
9 | GGUCCAGCCUGAGCUGGACUAUAGUAUGUACAUGAGGAUCACCCAUGUCAUGUACAAGUAUGUUGUUUGUCUUGAAA [Sensorship 5 - Jieux - Sensor for hsa-mir-208a] (puzzle: Sensor for hsa-mir-208a) |  |  |  | 72.3 nM | 65.4 nM | 103 nM
10 | ACAUGAGACUUAGGAUAUGUUGUACCUACAUGUGACAUGAGGAUCACCCAUGUGGUAAGUAUGACACAGAAGGAAGAGAUAUGU [Equivalance 67 - Jieux - Same State NG 2] (Eterna round: R96, puzzle: Same State NG 2) |  | 18.9 nM |  |  |  | 
11 | UUGCGGGCUUGAGGAUAUUGAGUACAUAUGUUUAACAUGAGGAUCACCCAUGUGGGUUGCGGUGUCGAGAAGGUGGCUUCCUGC [salish99_SSNG2_r04_814] (Eterna round: R96, puzzle: Same State NG 2) | 99.2 nM | 76.7 nM | 91.5 nM |  |  | 
12 | AAUUUAAUACAUGAGGAUCACCCAUGUAAAUUAAUUAAGAUCAAGGAUAUCAGCUCGUUUAGAGCUGAGAAGGUGAUCACAUGU [SSNG3/19-A3] (Eterna round: R96, puzzle: Same State NG 3) |  | 163 nM |  |  |  | 
13 | GUAAAACAUGAGGAUCACCCAUGUAAUAAUAUGGGAGGAUAUCAGAUUUAAUUUAAUUUAUGAGAAGGCCUAAAUG [Mat - Same State 1 - Mod of Eli - D59] (puzzle: Same State 1) |  |  |  | 57.4 nM | 181 nM | 427 nM
14 | AUAACCCGUGCUAAGGAUAUGCGUACUCCUACAUGAGGAUCACCCAUGUCCCGCCGAAAAGGAAGGCAGAAGGUAGCACGGGCCG [Lasoleri] (puzzle: Same State 2) |  |  |  | 45.7 nM | 84.9 nM | 126 nM
15 | UUAGCACAUGAGGAUCACCCAUGUACUAUACUCAUAGGAUAUACAAAGUCUUAAGACGUGGUAGAAGGGUGAGGAA [Zaateddi] (puzzle: Same State 1) |  |  |  | 101 nM | 106 nM | 128 nM
16 | ACAUGAGGAUCACCCAUGUAGGCUCAGGAAACUGUGCCACAUGAGGAUAUGGAUCCUAAUUGGAUCCAGAAGGCAUGUAUUAUU [Fiskers NG3ss - 22] (Eterna round: R96, puzzle: Same State NG 3) | 112 nM | 41.6 nM | 66.1 nM |  |  | 
17 | ACAUGAGAGAUAGGAUAUCGUGUACCUACAUGUGACAUGAGGAUCACCCAUGUGGUAAGUAUGAGCGAGAAGGAUCCGAUAUGU [salish99_SSNG2_r04_1001] (Eterna round: R96, puzzle: Same State NG 2) | 18.6 nM | 38.6 nM | 66.4 nM |  |  | 
18 | AGAAGACAUGAGGAUCACCCAUGUAUGAAAAGUACAGGAUAUCAUGAGCUAAGGUGCGCAUGAGAAGGGUGAAAAU [Aatle] (puzzle: Same State 1) |  |  |  | 549 nM | 166 nM | 70.3 nM
19 | AGUCCAGCCUGAGCUGGACAAAAGCAUGUACAUGAGGAUCACCCAUGUUCAUGUACAAGCUUUUUGCUCGUCUUAAA [JL zipper 52] (Eterna round: R96, puzzle: Sensor for hsa-mir-208a) | 615 nM | 13.8 nM | 636 nM |  |  | 
20 | UAAGUAUGUUGAGGAUAUUAUGUCAAGAGAGAUGACAUGAGGAUCACCCAUGUGUGAAGAGGAUUUAAGAAGGCAACAUACUUA [JR_SSNG2_Sub090] (Eterna round: R96, puzzle: Same State NG 2) | 39.9 nM | 47.7 nM | 66.7 nM |  |  | 
21 | CAGCGCUGUCGAGAGGAUAUGCGGUGAUGGACAUGAGGAUCACCCAUGUUAGCGAUAGCAUUACGGUAGAAGGCUCUGCAGCUGC [Soteed - 1] (puzzle: Same State 2) |  |  |  |  | 78.9 nM | 
22 | GCCGGCUGGUGAGGAUAUGGCACCUUAUUGGUGCCAGAAGGCAUGUCAAUUGACAUGAGGAUCACCCAUGUAUUGUCGUUGGCG [salish99_SSNG1_r04_608] (Eterna round: R96, puzzle: Same State NG 1) | 819 nM | 194 nM | 399 nM |  |  | 
23 | GUACGUGCAACGUAGGAUAUCCACGACACGACAUGAGGAUCACCCAUGUCAAGGCUUAAAAGUCGGGAGAAGGGCGAACCACGGA [Xereenge] (puzzle: Same State 2) |  |  |  | 14.5 nM | 15.9 nM | 19.2 nM
24 | CUAAACAGAGGAGGAUAUGCAGAGGAUCACCCUGUAGAAGGCCACAGAGGAGGAUAUGCAGAGGAUCACCCUGUAGAAGGCCAC [pwkr ssNG DX.7] (Eterna round: R96, puzzle: Same State NG 1) | 121 nM | 210 nM | 222 nM |  |  | 
25 | GGUAGGUUACUACCAAACAUGAGGAUCACCCAUGUAAAUGGGAAGGAUAUGGUACCGUUUCGGUACCAGAAGGUCCAAAAUAUU [JL Fiskers NG3ss - 2 final mod] (Eterna round: R96, puzzle: Same State NG 3) | 418 nM | 356 nM | 1520 nM |  |  | 
26 | AGUCCAGCCUGAGCUGGACAAAAGCAUGUACAUGAGGAUCACCCAUGUCAUGUACAAGCUUUUUGCUCGUCUAAAUA [Mat - hsa-mir-208a - Mod of JL - D27] (puzzle: Sensor for hsa-mir-208a) |  |  |  | 516 nM | 15.8 nM | 699 nM
27 | UUGCGGGCUUGAGGAUAUUGAGUACAUAUGUUUAACAUGAGGAUCACCCAUGUGGGUUGCGGUAUCGAGAAGGUAACUUACUAC [salish99_SSNG2_r04_807] (Eterna round: R96, puzzle: Same State NG 2) | 110 nM | 70.4 nM | 97.2 nM |  |  | 
28 | GGCCGGCCGAACGGAGGGCCACAUGAGGAUCACCCAUGUACAUAGGAUAUCAUGUCAACGAGGCAUGAGAAGGGUGAUUAAAGC [Orenriaran] (Eterna round: R96, puzzle: Same State NG 3) | 65 nM | 72.9 nM | 57.7 nM |  |  | 
